Results: the DeepSol protein solubility set

Test: soluble on expression in E. coli; label from the status in PepcDB or PDB records

Sequence	soluble on expression in E. coli
MSSLFVVGIGPGSNDLMTPQASLAIERSEYVIGFSLYVSFIKEKFPNKIYISNGMQGEIERAKKAIELARSGHNVSIISSGDAGIYGIAGAVFEILSTLEDNMPEVSVVPGIS	soluble
MKPESHCVYLELSAEREHKFYEVTVEGAELTIRYGRIGTEGQTQRKSFADSAGAQAEAEKKLVEKRKKGYGDAVRGQTEKKAVEQPRLKLPRKFEPYRERIEATLRPVLLLEVLEEEPGPLGSKVGGVPYRVQGEAWPTDTEGRPLTFLAQLNFADLPPLEGYPENGILQFFIGRDDLYGCDFMRPEEGNPASFEVRWSPEPQMDLSQLDVETPDFDDDGFSPLETLRGFGLRGQQVEQPMSWCDCHFEQAIGLDLCDNSEGPEGRALGEWRQEKYDELATYGHQVGGYPSFTQEDPRTADDPRILLFQLDSEAGKITWGDVGIANFFIDPDDLARWDFSRVAYNWDCTLEHHHHHH	soluble
MKAAEHDLLTIELAPRRRDELQIHNKKIAEVDHWLKNVFSESNKQLGVMYLTGPAGSGKSTTVEVMCTEQNIEIIEYSPEYLHNEDFECEKPDFTQLRRFLLRRHGSLRGGGLKKRLLLVTELPDQAYSDAEKFREDLSEVLQHIWHPVIFCLTNSIACWNLNPDRLFTKDFNIMNGIDTVTFNPVADSFMKKALVRASNCLSSPLSDAKLNVIGEEAGGDLRIAMNMLQMNSIGPNADRRSGNSVICASKANREEAFHMIGRILYAKRVNPNVPKPSRFSKRRRKSAPIPEPLVRTELEHDPTDIITMSSMTSEKLLDFLFQNEPIFCSNISKYRYVAETFSMCDFLTGDWTTRKSLPEDYVAQMATRSVMWNNYKEPRPGTLFAVGRPLRSSLEKHTARTKLELQRLPMIGAKDYAALTCPYITIIKDIIDPQRIEYFLSRPMDINWQWGNDKIEEHLEKQYALDYKGRKKHRLPLHKAPKPSGKIIEVVDLEEEEEKFTIEESSDDSFEEF	not soluble
MEFTAEQLSQYNGTDESKPIYVAIKGRVFDVTTGKSFYGSGGDYSMFAGKDASRALGKMSKNEEDVSPSLEGLTEKEINTLNDWETKFEAKYPVVGRVVS	soluble
MNYRDLTLRERQVLGIIIQSYVVSAMPVGSRTIARNYNLGLSDATIRNVMADLEADGFISQPHTSAGRVPTDKGYRYYVDLIMNVSRIDEEEKRMIDDRFSNRNSELKGTSAEVLGTAARVLGSISRQLAVVLPPRLSNAVFERLDIVQLASSRIMVVIAIQSLFVKTIVMELNAEISRQKIDAVVDVLNERLPGLTLEEIRSTIAQRLSDFKGSEELMNSIVSSADTLFDESSILEQLYVSGTENIVDQPEFKQPEKVRDIITMIEDKFGMARLVDNAVPSALRQVSECEVAISIGTENRTGKAADLTIVSSPYFAGKMIGRVGVMGPKRMNYEHAVRVVNYMAGCLSEALSGNN	not soluble
MVDKREEVMHVAMFPWLAMGHLLPFLRLSKLLAQKGHKISFISTPRNIERLPKLQSNLASSITFVSFPLPPISGLPPSSESSMDVPYNKQQSLKAAFDLLQPPLKEFLRRSSPDWIIYDYASHWLPSIAAELGISKAFFSLFNAATLCFMGPSSSLIEEIRSTPEDFTVVPPWVPFKSNIVFRYHEVTRYVEKTEEDVTGVSDSVRFGYSIDESDAVFVRSCPEFEPEWFGLLKDLYRKPVFPIGFLPPVIEDDDAVDTTWVRIKKWLDKQRLNSVVYVSLGTEASLRHEEVTELALGLEKSETPFFWVLRNEPKIPDGFKTRVKGRGMVHVGWVPQVKILSHESVGGFLTHCGWNSVVEGLGFGKVPIFFPVLNEQGLNTRLLHGKGLGVEVSRDERDGSFDSDSVADSIRLVMIDDAGEEIRAKAKVMKDLFGNMDENIRYVDELVRFMRSKGSSSSS	not soluble
TTPMNLTDAIAYILRPFAVLKVPVNDIALMISVALRFIPTLMGETDKIMKAQRARGVDFGEGNLFEQMKVVVPIFIPLFVSSFNRAEELADAMEARGYQGGEGRTRFRILH	not soluble
MTAQDYLNGKLAAANGPLADDWKNLKELWEKKLWHQLTVLTRSLVKKPQFVASTDMHEFYRLFVAEWELRVNPLQLVEICISIAQNIATKDKQKSMEFLSKIGNVINKDKIAVARLHTGEIEARLENKDKNGQIIDLKSIRTQIDSTQHEVDSLVGVTEVHAPFYRVSSLYLREVGDFAGYYREALRYLGVEDANNLTTEQKQVHAVLLGFAALLGENVHNFGELLAHPILKSLEGTRERWIVDVLLAFNSGDLTRFFSLEGDWGGWDDLKKQKDFLTAKIRLMAVMELAVSRPTKARSVSFKEIATKCQIPFDEVEFLVMKALSKDLIRGDINQVEQVVYVTWVQPRVLDNPQIMQMATRISAWRNDVNSMEGIVSKEAREILTQN	not soluble
